Key:
[1] = test system: MPXV A29 protein (mpox virus); assay: SPR
[2] = test system: MPXV A29 protein;anti-A29 IgG antibody (mpox virus;); assay: single-molecule nanopore, Hill fit; conditions: 5'-phosphate on aptamer probe, ligated into carrier
[3] = test system: VACV A27 protein;anti-A29 IgG antibody (Vaccinia virus (Copenhagen?);); assay: single-molecule nanopore; conditions: 5'-phosphate on aptamer probe, ligated into carrier
[4] = test system: MPXV A29 protein;anti-A29 IgG antibody (mpox virus;); assay: single-molecule nanopore; conditions: 5'-phosphate on aptamer probe, ligated into carrier
anti-A29 IgG antibody = assay: single-molecule nanopore; conditions: 5'-phosphate on aptamer probe, ligated into carrier
[5] = test system: VZV protein;anti-A29 IgG antibody (Varicella zoster virus;); assay: single-molecule nanopore; conditions: 5'-phosphate on aptamer probe, ligated into carrier
[6] = test system: MPXV A29 protein;anti-A29 IgG antibody (mpox virus;); assay: single-molecule nanopore; conditions: 5'-phosphate on aptamer probe, ligated into carrier; remark: listed apart in the source

## AGCACTCCACGCATAACGGGGGAGGAGGAGGTTCACTTTGGGCGGGTGGGAATGTTATGCGTGCTACCGT [HIM-A29-3]
[1]
  Kd: 12.4 nM

## AGCACTCCACGCATAACGGGGGAGGAGGAGGATGTTATTGGGTGGGCGGGTTTGTTATGCGTGCTACCGT [HIM-A29-4]
[1]
  Kd: 18.6 nM

## CACTGCGCCGGTATCGATATATTTTTTCACGCATAACGTCTTGCGGGGCGGCGGGTTGAGAGGATGTCGGGTGGTTATGCGTG / AAACCACTCAAGTTTGCCAACCAAATGTATATCGATACCGGCGCAGTG [9.1 kbp DNA molecular probe with HIM-A29-6]
[2]
  Kd: 0.0823 nM
[3]
  binding signal (% events with subpeak): 0.01
[4]
  binding signal (% events with subpeak): 3.98
anti-A29 IgG antibody
  binding signal (% events with subpeak): 0.01
[5]
  binding signal (% events with subpeak): 0
[6]
  binding signal (% events with subpeak): 3.98

## AGCACTCCACGCATAACGGAGCCGGGGGGCCTTGGGGGATGCAGCTTCGAAGTGTTATGCGTGCTACCGT [HIM-A29-2]
[1]
  Kd: 35.4 nM

## CACGCATAACGTCTTGCGGGGCGGCGGGTTGAGAGGATGTCGGGTGGTTATGCGTG [HIM-A29-6]
[1]
  Kd: < 10 nM

## AGCACTCCACGCATAACCGGTGGGCGGGGGATGTGGGAAGGTATCGGGGTTGCGTTATGCGTGCTACCGT [HIM-A29-5]
[1]
  Kd: 8.49 nM

## AGCACTCCACGCATAACGGGGTCTGGTGGTCTGGCTGGTTTGGGGGTTTGGTCGTTATGCGTGCTACCGT [HIM-A29-1]
[1]
  Kd: 10.8 nM

Reference: article PMC10755749
